According to patent US20250270315A1 (ELPISCIENCE SUZHOU BIOPHARMA, published 2025):
Substitutions are numbered along the chain they refer to.

T1: C57BL/6 mouse SIRPα stably expressed on CHOK1 cells (C57BL/6 mouse, UniProt P97797 32-513)
T1 construct: whole, on cells; also called CHOK1-C57BL/6 mouse SIRPα
T1 sequence (looked up): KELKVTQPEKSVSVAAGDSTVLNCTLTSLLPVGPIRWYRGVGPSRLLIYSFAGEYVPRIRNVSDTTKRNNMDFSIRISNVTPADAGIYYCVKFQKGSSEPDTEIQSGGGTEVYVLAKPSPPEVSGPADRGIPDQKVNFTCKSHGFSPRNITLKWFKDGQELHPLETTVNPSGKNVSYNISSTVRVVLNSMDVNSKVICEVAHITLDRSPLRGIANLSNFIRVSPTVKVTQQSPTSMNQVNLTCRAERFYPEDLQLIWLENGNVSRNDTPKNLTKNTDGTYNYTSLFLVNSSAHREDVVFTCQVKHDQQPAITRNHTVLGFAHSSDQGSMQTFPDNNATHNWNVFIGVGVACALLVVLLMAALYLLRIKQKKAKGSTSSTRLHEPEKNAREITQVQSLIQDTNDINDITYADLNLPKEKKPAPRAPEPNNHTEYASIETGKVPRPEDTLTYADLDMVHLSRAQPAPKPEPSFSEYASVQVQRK

B1: 071 (antibody, V domains shown)
VH: QIQLVQSGPELKKPGETVKISCKASGYTFTTYGMSWVKQAPGKGLKWMVWINTYSGVPTYADDFQGRFAFSLETSASTSYLQINNLRNEDTATYFCARDPHYYGTSPAWFAYWGQGTLVTVSA
VL: DIVMTQSQKFMSTTIGDRVIITCKASQIVGIAVAWYQQKPGQSPKLLIYSASNRFTGVPDRFTGSGSGTDFTLTISNMQSEDLADYFCQQYSTYPFTFGSGTKLEIK
notes: Mouse monoclonal hybridoma antibody; also called antibody 071; hybridoma antibody 071
B2: 073 (antibody, V domains shown)
VH: B1 VH with Q65K, R87K, T105S, A111V
VL: B1 VL with I20S, K24E, F55Y, D85N, T93A, I106V
notes: Mouse monoclonal hybridoma antibody; also called antibody 073; hybridoma antibody 073
B3: 005 (antibody, V domains shown)
VH: EVKLVESGGGLVQPGGSLSLSCAASGFTFTDYYMSWVRQPPGKALEWLGFIKNEANGYTTESSASVKGRFTISRDNSQSILYLQMNALRAEDSATYYCARYDYYGSNYNWYFDAWGTGTTVTVSS
VL: DIVMTQSQKFMSPSVGDRVSITCKASQNVRTAVAWYQQKPGQSPKVLIHLASKRHTGVPDRFTGSGSGTDFTLTISNVQSEDLADYFCLQHWIHPLTFGAGTKLELK
notes: Mouse monoclonal hybridoma antibody purified on Protein A; also called antibody 005; hybridoma antibody 005
B4: HEFLB (antibody, V domains shown)
VH: EVQLVQSGAEVKKPGESLRISCKASGYSFTSYWVHWVRQMPGKGLEWMGNIDPSDSDTHYSPSFQGHVTLSVDKSISTAYLQLSSLKASDTAMYYCVRGGTGTLAYFAYWGQGTLVTVSS
VL: DVVMTQSPLSLPVTLGQPASISCRSSQSLVHSYGNTYLYWFQQRPGQSPRLLIYRVSNRFSGVPDRFSGSGSGTDFTLKISRVEAEDVGVYYCFQGTHVPYTFGGGTKVEIK
B5: 059 (antibody, V domains shown)
VH: QVQLQQSGPELVKPGASVKMSCKASGYTFSEYVLSWVKQRTGQGLEWIGEIYPGTITTYYNEKFKGKATLTADKSSNTAYIQLTSLTSEDSAVYFCGRFYDYDGGWFAYWGQGTLLTVSA
VL: ENVLTQSPEKMAVSLGQKVTMTCSASSSVSSSDLHWYQQKSGASPKPLIHGTSNLASGVPARFSGSGSGTSYSLTISSVEAEDAATYYCQQWSGYPWTFGGGTNLEIK
notes: Mouse monoclonal hybridoma antibody; also called antibody 059; hybridoma antibody 059
B6: 015 (antibody, V domains shown)
VH: EVQLQQSGVEVVQPGASVKLSCTASGFNIEAYYMHWVKQRTEQGLEWIGRIDPEDGESKYAPKFQGKATMTADTSSSTAYLQLSSLTSDDTAVYYCVRGSYEYWGQGTTLTVSS
VL: QIVLTQSPAIMSASPGEKVTLTCSASSSVSSSYLYWYQQKPGSSPKLWIYSTSNLASGVPPRFSGSGSGTSYSLTISSMQAEDAASYFCYQWSSYPYTFGGGTKLEIK
notes: Mouse monoclonal hybridoma antibody; also called antibody 015; hybridoma antibody 015

These binders were tested against full length human SIRPα v1 with a small beta-gal fragment (ED) fused to its C-terminal, expressed in K562 … (human, UniProt P78324 31-504) (assay: cell-based or functional assay).
Chain of full length human SIRPα v1 with a small beta-gal fragment (ED) fused to its C-terminal, expressed in K562 … (P78324 31-504): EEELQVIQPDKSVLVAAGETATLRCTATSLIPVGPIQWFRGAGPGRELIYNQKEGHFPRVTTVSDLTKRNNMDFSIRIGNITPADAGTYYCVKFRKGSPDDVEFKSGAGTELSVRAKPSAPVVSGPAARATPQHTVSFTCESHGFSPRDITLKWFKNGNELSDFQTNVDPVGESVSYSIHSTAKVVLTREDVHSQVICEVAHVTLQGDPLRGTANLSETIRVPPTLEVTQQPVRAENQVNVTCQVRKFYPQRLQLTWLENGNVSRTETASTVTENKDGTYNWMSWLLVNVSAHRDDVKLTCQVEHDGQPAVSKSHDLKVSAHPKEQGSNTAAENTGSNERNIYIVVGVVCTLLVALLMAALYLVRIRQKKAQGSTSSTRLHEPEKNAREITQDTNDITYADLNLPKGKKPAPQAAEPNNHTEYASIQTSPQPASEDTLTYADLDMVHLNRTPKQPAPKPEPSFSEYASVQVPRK

Row | SHP-1 recruitment (% blocking), Test I [%] | SHP-1 recruitment (% blocking), Test II [%] | Binder
1 | 77.2 | 72.6 | B1
2 | 76.9 | 75.9 | B2
3 | 71 | 82.7 | B3
4 | 46.8 | 50.3 | B4
5 | 77.5 | 80.2 | B5
6 | 83.6 | 89.6 | B6

What follows are binders tested against T2, Fc tagged human SIRPα v2 ECD recombinant protein (human) (assay: ELISA, coated Fc tagged human SIRPα v2 ECD).
T2 construct: range 1-369; also called hFc tagged human SIRPα v2 ECD
Method: (§1) Binding specificity of the purified hybridoma antibodies against human SIRPα variants was detected by ELISA assay using recombinant proteins of Fc tagged human SIRPα v1 ECD and human SIRPα v2 ECD. Briefly the antibodies were incubated with ELISA microplate coated antigens at 37° C. for 1 hour. After washing, horseradish peroxidase (HRP) labeled anti-mouse IgG 2nd Ab (Sigma) was added and incubated at 37° C. for 1 hour. Then, 100 μl/well of TMB solution (Biotechnology) was added. After incubation for 15 minutes at room temperature, the reaction was stopped by the addition of 50 ul of 1N HCl. OD 450 nm was read and EC₅₀ was calculated using GraphPad Prism9.0. Other than HEFLB, all antibodies as tested bind to both human SIRPα v1 and human SIRPα v2. HEFLB can only bind to human SIRPα v1 but not human SIRPα v2.

Row | EC50 [nM] | Binder
7 | 0.02 | B1
8 | 0.03 | B2
9 | 0.12 | B3
10 | 0.1 | B5
11 | 0.15 | B6

The binders below were run against T3, human SIRPα v1 ECD recombinant protein (tag not given) (human, UniProt P78324 31-373) (assay: competitive ELISA, biotin human SIRPα v1 ECD on coated human CD47 ECD).
T3 construct: extracellular domain; also called biotin labeled soluble human SIRPα v1 ECD recombinant protein; ELISA microplate coated human SIRPα v1 ECD
Method: Competitive ELISA assay was used to determine whether the purified hybridoma antibodies can block CD47 and SIRPα interaction. Briefly, antibody and biotin labeled soluble human SIRPα v1 ECD recombinant protein were co-incubated with ELISA microplate coated human CD47 ECD recombinant protein. After washing, HRP labeled streptavidin (HRP-SA, Sigma) was added and incubated at 37° C. for 1 hour. Then, 100 μl/well of TMB solution (Biotechnology) was added. After incubation for 15 minutes at room temperature, the reaction was stopped by the addition of 50 μl of 1N HCl. OD 450 nm was read. The blocking ratios were determined by blockade of biotin labeled human SIRPα v1 ECD recombinant protein binding to ELISA microplate coated human CD47 ECD recombinant protein. Other than 005, all antibodies as tested can block human CD47 and human SIRPα v1 interaction.

T3 sequence (P78324 31-373): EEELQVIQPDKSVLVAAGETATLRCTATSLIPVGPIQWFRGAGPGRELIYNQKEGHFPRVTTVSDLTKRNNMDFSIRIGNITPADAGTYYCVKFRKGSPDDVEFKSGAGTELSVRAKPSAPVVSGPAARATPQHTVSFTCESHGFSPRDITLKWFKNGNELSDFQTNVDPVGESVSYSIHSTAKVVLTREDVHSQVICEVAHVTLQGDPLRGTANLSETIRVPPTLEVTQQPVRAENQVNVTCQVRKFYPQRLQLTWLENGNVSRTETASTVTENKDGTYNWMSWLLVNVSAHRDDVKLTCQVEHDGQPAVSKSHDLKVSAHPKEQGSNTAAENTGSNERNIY

Row | IC50 [nM] | Binder
12 | 0.17 | B1
13 | 0.16 | B2
14 | 0.5 | B4
15 | 0.12 | B5
16 | 0.3 | B6

The binders below were run against T4, full length human SIRPα v1 stably expressed on CHOK1 or 293F cells (human, UniProt P78324 31-504) (assay: competitive FACS, mFc-CD47 ECD on CHOK1-human SIRPα v1 cells).
T4 construct: whole, on cells; also called CHOK1-human SIRPα v1; CHOK1-hSIRPα v1
Method: Competitive FACS assay was also set up to further compare the blocking activity of the humanized antibodies and reference antibodies. Briefly antibody and mFc tagged human CD47 ECD recombinant protein were co-incubated with CHOK1 cells stably expressing human SIRPα v1 (FIG. 16A) or human SIRPα v2 (FIG. 16B). After washing, dye labeled anti-mouse Fc 2nd antibody (Sigma) was added and incubated at 37° C. for 1 hour. Fluorescence intensity was detected. Blocking ratio was determined by blockade of human CD47 ECD recombinant protein binding to SIRPα expressed CHOK1 cells. […] In particular, HEFLB doesn't work at all for human SIRPα v2.

T4 sequence (P78324 31-504): as the sequence (P78324 31-504) above

Row | IC50 [nM] | TOP blocking (%) | Binder
17 | 0.94 | 97.6 | B4

Each binder was assayed against T1, C57BL/6 mouse SIRPα stably expressed on … (assay: FACS, CHOK1-C57BL/6 mouse SIRPα cells, MFI at 100 nM).
Method: (§2) Species cross reactivity of the purified hybridoma antibodies against human, cyno and mouse SIRPα was determined by FACS assay using CHOK1 cells stably expressing human SIRPα v1, CHOK 1-cyno SIRPα and C57BL/6 mouse SIRPα. Briefly the antibodies were incubated with 2×10⁵ target cells at 4° C. for 1 hour. After washing, fluorescence labeled anti-mouse IgG 2nd antibody (Life Technologies) was added and incubated at 4° C. for 1 hour. Geometric median fluorescence intensity was detected and EC₅₀ was calculated using GraphPad Prism9.0. Other than HEFLB, all antibodies as tested can bind to cyno SIRPα. None of tested antibodies can bind to C57BL/6 mouse SIRPα.

Row | binding result | Binder
18 | no binding (tested: 100 nM) | B1
19 | no binding (tested: 100 nM) | B2
20 | no binding (tested: 100 nM) | B3
21 | no binding (tested: 100 nM) | B4
22 | no binding (tested: 100 nM) | B5
23 | no binding (tested: 100 nM) | B6

What follows are binders tested against T5, Fc tagged human SIRPα v1 ECD recombinant protein (human, UniProt P78324 31-370) (assay: ELISA, coated Fc tagged human SIRPα v1 ECD).
T5 construct: range 1-370; also called hFc tagged human SIRPα v1 ECD; not shown: human IgG Fc (hFc) tag
Method: as §1

T5 sequence (P78324 31-370 limits assumed): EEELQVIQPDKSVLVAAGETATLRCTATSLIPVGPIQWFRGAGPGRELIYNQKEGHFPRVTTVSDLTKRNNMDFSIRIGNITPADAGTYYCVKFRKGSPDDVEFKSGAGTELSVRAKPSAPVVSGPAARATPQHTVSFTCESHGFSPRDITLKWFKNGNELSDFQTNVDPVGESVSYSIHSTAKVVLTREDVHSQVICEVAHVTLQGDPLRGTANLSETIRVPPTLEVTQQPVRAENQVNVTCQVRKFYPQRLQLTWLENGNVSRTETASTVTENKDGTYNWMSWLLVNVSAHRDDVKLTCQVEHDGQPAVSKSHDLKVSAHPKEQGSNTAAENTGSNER

Row | EC50 [nM] | Binder
24 | 0.03 | B1
25 | 0.03 | B2
26 | 0.13 | B3
27 | 0.17 | B4
28 | 0.03 | B5
29 | 0.1 | B6

These binders were tested against T4, full length human SIRPα v1 stably … (assay: FACS, CHOK1-human SIRPα v1 cells).
Method: as §2

Row | EC50 [nM] | Binder
30 | 0.2 | B1
31 | 0.2 | B2
32 | 1.8 | B3
33 | 11.2 | B4
34 | 0.1 | B5
35 | 1 | B6
